Results taken from patent US11427623.

How the values were obtained:
[1] = biological target: KLB (beta-klotho) on KLB only expressing cells (UniProt Q86Z14); test: cell-based or functional assay
[2] = biological target: KLB/FGFR4 on KLB/FGFR4 expressing cells (UniProt Q86Z14); test: cell-based or functional assay
Sequence of KLB/FGFR4 on KLB/FGFR4 expressing cells (Q86Z14 whole entry, chain 1 of 2): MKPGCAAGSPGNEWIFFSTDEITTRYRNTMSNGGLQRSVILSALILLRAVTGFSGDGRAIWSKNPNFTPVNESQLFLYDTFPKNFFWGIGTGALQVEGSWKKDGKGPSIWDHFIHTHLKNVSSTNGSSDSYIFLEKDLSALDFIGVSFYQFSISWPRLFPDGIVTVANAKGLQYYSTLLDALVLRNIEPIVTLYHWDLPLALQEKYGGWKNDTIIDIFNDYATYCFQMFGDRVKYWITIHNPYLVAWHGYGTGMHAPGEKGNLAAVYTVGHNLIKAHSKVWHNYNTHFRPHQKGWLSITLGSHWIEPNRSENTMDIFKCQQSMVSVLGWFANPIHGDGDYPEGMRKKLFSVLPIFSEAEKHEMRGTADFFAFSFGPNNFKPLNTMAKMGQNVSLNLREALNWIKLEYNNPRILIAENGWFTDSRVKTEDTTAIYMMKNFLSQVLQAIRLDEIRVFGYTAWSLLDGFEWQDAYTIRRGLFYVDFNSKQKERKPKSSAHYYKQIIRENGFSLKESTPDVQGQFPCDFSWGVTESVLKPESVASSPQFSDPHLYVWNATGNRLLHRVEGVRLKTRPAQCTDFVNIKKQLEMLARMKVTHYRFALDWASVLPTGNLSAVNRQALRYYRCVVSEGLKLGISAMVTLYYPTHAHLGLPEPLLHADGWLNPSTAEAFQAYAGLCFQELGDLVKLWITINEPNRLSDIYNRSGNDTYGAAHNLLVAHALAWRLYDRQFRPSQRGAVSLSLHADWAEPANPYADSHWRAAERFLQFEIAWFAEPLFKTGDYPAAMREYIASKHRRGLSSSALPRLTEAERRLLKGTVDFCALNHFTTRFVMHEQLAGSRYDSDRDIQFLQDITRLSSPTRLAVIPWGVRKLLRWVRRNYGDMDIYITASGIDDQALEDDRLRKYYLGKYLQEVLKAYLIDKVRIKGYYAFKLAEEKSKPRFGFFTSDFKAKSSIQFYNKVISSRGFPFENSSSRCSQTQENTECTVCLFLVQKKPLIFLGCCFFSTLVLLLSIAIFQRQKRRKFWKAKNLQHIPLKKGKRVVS
Sequence of KLB/FGFR4 on KLB/FGFR4 expressing cells (P22455 22-802 limits assumed, chain 2 of 2, further chain): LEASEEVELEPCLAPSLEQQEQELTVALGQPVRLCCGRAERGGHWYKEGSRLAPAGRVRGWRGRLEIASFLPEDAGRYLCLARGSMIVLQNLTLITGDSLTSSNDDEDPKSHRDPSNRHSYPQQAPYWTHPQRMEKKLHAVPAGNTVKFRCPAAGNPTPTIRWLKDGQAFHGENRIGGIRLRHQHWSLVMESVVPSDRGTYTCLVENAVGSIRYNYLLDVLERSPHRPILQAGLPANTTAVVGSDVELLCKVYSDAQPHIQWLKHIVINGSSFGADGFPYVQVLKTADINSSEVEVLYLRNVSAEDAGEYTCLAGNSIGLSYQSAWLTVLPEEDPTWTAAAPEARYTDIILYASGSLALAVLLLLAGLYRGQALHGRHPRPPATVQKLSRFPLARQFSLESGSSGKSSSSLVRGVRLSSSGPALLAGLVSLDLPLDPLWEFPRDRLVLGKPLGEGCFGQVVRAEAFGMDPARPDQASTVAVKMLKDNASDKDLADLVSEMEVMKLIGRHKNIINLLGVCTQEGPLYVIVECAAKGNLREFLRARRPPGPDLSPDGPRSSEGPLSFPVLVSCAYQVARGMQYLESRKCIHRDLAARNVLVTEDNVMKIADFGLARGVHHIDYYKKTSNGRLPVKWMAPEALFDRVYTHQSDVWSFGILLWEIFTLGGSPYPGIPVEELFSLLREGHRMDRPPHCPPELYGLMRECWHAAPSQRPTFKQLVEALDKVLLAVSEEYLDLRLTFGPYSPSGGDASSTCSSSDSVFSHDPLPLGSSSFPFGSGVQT

Sequence of KLB (beta-klotho) on KLB only expressing cells (Q86Z14 whole entry): as the sequence (Q86Z14 whole entry, chain 1 of 2) above

Substance	fold increase of pERK at 3000 nM [1] [fold]	fold increase in pERK at the highest concentration of 3000 nM [2] [fold]
FGF-19 (from UniProt O95750 25-216) (ligand)	2	
Mutant FGF21-GalNAc-SA-PEG-20 kDa (BIO89-100) (from UniProt Q9NSA1 29-209) (ligand)		< 2
native FGF-21 (from UniProt Q9NSA1 29-209) (ligand)	2	< 2
